In publication PMC2768988:

Columns and labels:
[1] = target: Flrt1a ectodomain (zebrafish); test: SPR; BIAcore, kinetic analysis; same surfaces; three concentrations of Unc5b-Cd4d3+4-6His, flow 100 μl/min, 10 Hz, global fit of first-order decay and of an association model; HBS-EP, 28°C; purification of the Flrt baits not stated
[2] = target: Flrt3 ectodomain (zebrafish); test: as above
[3] = target: Flrt1b ectodomain (zebrafish); test: as above
[4] = target: Flrt1a ectodomain (zebrafish); test: SPR; BIAcore, equilibrium analysis; biotinylated Flrt-Cd4d3+4-bio baits (about 1000 RU) on a streptavidin-coated chip, Cd4d3+4-bio as reference; purified monomeric Unc5b-Cd4d3+4-6His injected; HBS-EP, 28°C; purification of the Flrt baits not stated
[5] = target: Flrt3 ectodomain (zebrafish); test: as above
[6] = target: Flrt1b ectodomain (zebrafish); test: as above

Unc5b-Cd4d3+4-6His (domain or fragment)
koff [1]: > 7 s⁻¹
kon [1]: > 100000 M⁻¹ s⁻¹
t1/2 [1]: < 0.1 s
kon [2]: > 100000 M⁻¹ s⁻¹
koff [3]: 0.6 s⁻¹
kon [3]: > 100000 M⁻¹ s⁻¹
t1/2 [3]: 1.2 s
Kd [4]: > 50 µM
Kd [5]: 14 µM
Kd [6]: 4 µM
